Literature values, collected in publication PMC7294537.

What was measured:
lysozyme (Gallus gallus) = lysozyme (Gallus gallus) (UniProt P00698)
[1] = biological target: CUE domain CUE (Saccharomyces cerevisiae) (UniProt P36075)
CUE domain CUE (Saccharomyces cerevisiae), sequence (P36075 8-51): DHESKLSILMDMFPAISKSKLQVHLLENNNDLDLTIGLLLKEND

lysozyme, sequence (P00698 19-147): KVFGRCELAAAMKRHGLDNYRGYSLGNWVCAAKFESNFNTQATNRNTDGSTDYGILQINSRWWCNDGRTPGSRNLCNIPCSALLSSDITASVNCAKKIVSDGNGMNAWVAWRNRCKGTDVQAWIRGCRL
ubiquitin, sequence (P0CG63 1-76): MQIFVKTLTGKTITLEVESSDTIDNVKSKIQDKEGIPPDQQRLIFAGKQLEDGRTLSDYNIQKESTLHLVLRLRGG

Substance | Kd (lysozyme (Gallus gallus)) [µM] | Kd [1] [µM]
lysozyme (from UniProt P00698) | 2710 | 
ubiquitin (from UniProt P0CG63) |  | 155
